Source: paper PMC8017925, “Structural basis for differential recognition of phosphohistidine-containing peptides by 1-pHis and 3-pHis monoclonal antibodies” (Proceedings of the National Academy of Sciences of the …, 2021)

Legend:
Type in all cases: binding
Common-His pHis peptide = assay: BLI of pHis Fabs with phosphorylated Common-His peptide
Procedure: (§1) Next, we turned to further analyze the peptide selectivity using BLI experiments. Nine amino acid peptide sequences from proteins known to undergo histidine phosphorylation were selected and synthesized (SI Appendix, Table S2). The biotinylated peptides ACLY, NM23, SCS, and Common-His were chemically phosphorylated using phosphoramidate (8 h at 23 °C), and affinity-purified using immobilized 1-pHis IgGs or 3-pHis IgGs, as described above. BLI signal intensity was used to assess peptide binding to the Fabs. SC1-1, SC50-3, SC39-4, and SC56-2 had signal intensities in 0.5 to 1 nm for the association (SI Appendix, Fig. S10), whereas SC44-8 had maximum signal (2.0 nm) with ACLYana, which has GpHAGAG motif, and a signal of 0.5 nm for ACLY and SCS peptides, which have GpHAGAC and GpHAGAI motifs, respectively. However, there was no signal with NM23 and Common-His peptides, which lack this motif (SI Appendix, Fig. S10D). […] The binding kinetics of the pHis Fabs with this set of peptides indicate that the affinity values are similar for the pHis Fabs SC50-3, SC39-4, and SC56-2, consistent with them binding in a sequence-independent manner.
(§2) The binding kinetics of pHis Fabs with the peptides (pTza and pHis) were evaluated with an Octet RED96e (FortéBio). Streptavidin-coated biosensors (FortéBio) were presoaked in buffer containing 50 mM Hepes pH 8.0, 150 mM NaCl, 0.05% Tween-20, and 0.2% BSA for 15 min. The biotinylated pTza peptides or pHis peptides (20 nM) with and without phosphoramidate treatment were coated onto these streptavidin biosensors and analyzed for their binding to varying concentrations of the pHis Fabs with an association time of 120 s and dissociation time of 200 s. The entire set of experiments was repeated three times. The data were analyzed using the Octet software (FortéBio) and the rates of association and dissociation were obtained by global fitting data to the 1:1 Langmuir interaction model. […]
(§3) Peptides used in the DSF and BLI experiments were synthesized by the Salk Peptide Synthesis Core. These peptides were N-terminally biotinylated and C-terminally amidated. They were synthesized using standard Fmoc chemistry on a Gyros Protein Technologies Tribute peptide synthesizer with UV monitoring. […]
(§4) Phosphoramidation reaction. The small molecule phosphate donor phosphoramidate was used to phosphorylate the peptides containing His (Table S2). Phosphoramidate was synthesized based on Wei and Matthew’s method (2) and stored in a desiccator. 20 nanomoles of peptides were added to one micromole of the phosphoramidate in 50 mM Hepes pH 8.0 and 150 mM NaCl buffer. […]
(§5) 1H NMR of ACLYana peptide. A mixture of 5 mM ACLYana peptide and 250 mM phosphoramidate in 20 mM d18-Hepes, pH 8.0, 50 mM NaCl in D2O was incubated at 23 °C and monitored over the course of 29 h. […]

ACLY pHis peptide = assay: BLI of pHis Fabs with phosphorylated ACLY peptide; settings: GpHAGAC motif
Procedure: (§6) Next, we turned to further analyze the peptide selectivity using BLI experiments. Nine amino acid peptide sequences from proteins known to undergo histidine phosphorylation were selected and synthesized (SI Appendix, Table S2). The biotinylated peptides ACLY, NM23, SCS, and Common-His were chemically phosphorylated using phosphoramidate (8 h at 23 °C), and affinity-purified using immobilized 1-pHis IgGs or 3-pHis IgGs, as described above. BLI signal intensity was used to assess peptide binding to the Fabs. […]
as §2, with “Streptavidin-coated biosensors (FortéBio) were presoaked in buffer containing 50 mM Hepes pH 8.0, 150 mM NaCl, 0.05% Tween-20, and 0.2% BSA for 15 min.” left out, “The entire set of experiments was repeated three times.” left out
as §5

NM23 pHis peptide = assay: BLI of pHis Fabs with phosphorylated NM23 peptide
Procedure: as §1, §2, §3, §4, §5

SCS pHis peptide = assay: BLI of pHis Fabs with phosphorylated SCS peptide; settings: GpHAGAI motif
Procedure: as §6
as §2, with “Streptavidin-coated biosensors (FortéBio) were presoaked in buffer containing 50 mM Hepes pH 8.0, 150 mM NaCl, 0.05% Tween-20, and 0.2% BSA for 15 min.” left out, “The entire set of experiments was repeated three times.” left out
as §5

[1] = BLI, phosphorylated, affinity-purified Common-His peptide, Table S7
[2] = BLI, phosphorylated, affinity-purified NM23 peptide, Table S7

B1: SC44-8: Fab of rabbit 3-pHis-specific monoclonal antibody with proclivity for GpHAGA motif (antibody, V domains shown)
VH: QSVKESGRGLVQPGGSLTLTCTASGFSIDSYGFSWVRQAPGKGLEHIGYLTAGGRAFYASWAKSRSTITRNTNENTVTLKMTSLTAADTATYFCAKLGSGNPVAIWGPGTLVTVSS
VL: QVLTQTPSFTSAAVGGTVTINCQSSQSVWRNKNLAWYQQKPGQPPKRLIYAIATLDSGVPSRFSGSGSGTQFTLTISDVQCDDAATYYCVGHYGSENDAYYAFGGGTEVVVK
- KD (Common-His pHis peptide; BLI, biotinylated Common-His peptide phosphorylated with phosphoramidate (8 h at 23 °C), affinity-purified on 1-pHis or 3-pHis IgGs (cognate isomer), Table S7): No binding
- ka (Common-His pHis peptide; [1]): No binding
- kd (Common-His pHis peptide; [1]): No binding
- BLI signal with Common-His peptide (Common-His pHis peptide; phosphorylated Common-His, lacks GpHAGA motif): no signal
- BLI signal with ACLY peptide (ACLY pHis peptide): 0.5 nm
- KD (NM23 pHis peptide; BLI, biotinylated NM23 peptide phosphorylated with phosphoramidate (8 h at 23 °C), affinity-purified on 1-pHis or 3-pHis IgGs (cognate isomer), Table S7): No binding
- ka (NM23 pHis peptide; [2]): No binding
- kd (NM23 pHis peptide; [2]): No binding
- BLI signal with NM23 peptide (NM23 pHis peptide; phosphorylated NM23, lacks GpHAGA motif): no signal
- BLI signal with SCS peptide (SCS pHis peptide): 0.5 nm
